Results as given in US20260184791A1 (KYMAB, published 2026).

T1: human ICOS expressed on the surface of cells (human, UniProt Q9Y6W8 21-199)
T1 construct: also called hICOS; Human ICOS CHO
T1 sequence: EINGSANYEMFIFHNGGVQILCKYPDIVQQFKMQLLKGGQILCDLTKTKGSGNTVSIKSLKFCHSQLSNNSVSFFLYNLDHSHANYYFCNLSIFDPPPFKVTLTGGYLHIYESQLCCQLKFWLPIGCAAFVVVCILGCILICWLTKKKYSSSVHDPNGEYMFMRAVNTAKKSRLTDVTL

T2: mouse ICOS expressed on the surface of CHO-S cells (mouse, UniProt Q9WVS0 21-141)
T2 construct: The construct expressed in CHO-S cells is not specified; also called mICOS; Mouse ICOS CHO
T2 sequence: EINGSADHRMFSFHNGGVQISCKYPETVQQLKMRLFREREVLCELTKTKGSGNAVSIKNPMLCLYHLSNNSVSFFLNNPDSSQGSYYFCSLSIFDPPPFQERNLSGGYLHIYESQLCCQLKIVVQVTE


Columns and labels:
[1] = molecular target: T1, human ICOS expressed on the surface of …; test: flow cytometry, CHO-S cells expressing ICOS, purified IgG1
[2] = molecular target: T2, mouse ICOS expressed on the surface of …; test: as above
[3] = molecular target: T1, human ICOS expressed on the surface of …; test: Receptor occupancy by chip cytometry on ICOS+ CD4 memory cells (ICOS+CD3+CD4+FoxP3-CD45RA-) from blood of patients dosed with KY1044 every 3 weeks; samples at C1D1, C1D8, C2D1 and C2D8

| Binder | fold above the average of geomean of the negative control [1] [fold] | fold above the average of geomean of the negative control [2] [fold] | binding result [3] |
| --- | --- | --- | --- |
| CL-74570 (antibody, human IgG1, V domains shown) VH: EVQLVESGGGVIRPGGSLRLSCAASGFTFDDYGMSWVRQAPGKGLEWVSGINWIGDNTDYADSVKGRFTISRDNAKNSLYLQMNSLRAEDTALYYCARDYFGSGSYYNVPF VL: not shown | > 10 | > 10 | – |
| CL-61091 (antibody, human IgG1, V domains shown) VH: QVQLMQSGTEVKKPGASVKVSCKTSGYTFTTYGITWVRQAPGQGLEWMGWISAYSGDTDYAQKFQGRVTVTTDTSTNTAYMELRSLKSDDTAVYYCARSSGWPHHYGMDVWGQGTTVTVSS VL: DIVMTQSPLSLPVTPGEPASISCRSSQSLLHSNGFNYFDWYLQKPGQSPQLLIFLVSNRASGVPDRFSGSGSGTDFTLKISRVEAEDVGIYYCMQALQTPLTFGGGTKVEIK | > 10 | > 10 | – |
| KY1044 (antibody, human IgG1, kappa, V domains shown, also called STIM003; SAR445256) VH: EVQLVESGGGVVRPGGSLRLSCVASGVTFDDYGMSWVRQAPGKGLEWVSGINWNGGDTDYSDSVKGRFTISRDNAKNSLYLQMNSLRAEDTALYYCARDFYGSGSYYHVPFDYWGQGILVTVSS VL: EIVLTQSPGTLSLSPGERATLSCRASQSVSRSYLAWYQQKRGQAPRLLIYGASSRATGIPDRFSGDGSGTDFTLSISRLEPEDFAVYYCHQYDMSPFTFGPGTKVDIKR | – | – | binds |
